Data as given in patent publication US20200407436A1 (published 2020).

Assays:
[1] = target: T1, full length TGF-beta 1 including the latency associated peptide (human, UniProt P01137 30-390); assay: analytical gel filtration
T1 construct: also called latent TGF-beta 1; human Latency-associated Peptide and TGF-beta 1

[2] = target: TGF-beta produced and activated by BxPC3 cells; assay: cell-based or functional assay
[3] = target: endogenously produced TGF-beta in the RPTEC and HRF co-culture system; assay: cell-based or functional assay
[4] = target: T2, mature human TGF-beta 2 (human, UniProt P61812 303-414); assay: cell-based or functional assay
T2 sequence: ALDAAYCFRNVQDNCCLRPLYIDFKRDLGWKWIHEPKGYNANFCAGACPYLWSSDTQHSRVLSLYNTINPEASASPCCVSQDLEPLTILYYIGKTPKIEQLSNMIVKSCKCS

[5] = target: T3, mature human TGF-beta 3 (human, UniProt P10600 301-412); assay: cell-based or functional assay
T3 sequence: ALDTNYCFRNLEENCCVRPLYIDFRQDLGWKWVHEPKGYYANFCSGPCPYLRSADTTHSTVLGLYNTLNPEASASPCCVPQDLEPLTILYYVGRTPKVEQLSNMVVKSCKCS

[6] = target: T4, mature human TGF-beta 1 (human, UniProt P01137 279-390); assay: SPR Biacore T200, human TGF-beta amine-coupled (~20 RU), E. coli derived Fab as analyte; heterogeneous fit, component 1 (ka1; believed occluded)
T4 construct: Bought recombinant protein (Peprotech); also called TGFb1; TGFB1
Experimental: (§1) Human TGF-β isoforms 1, 2, and 3 (Peprotech) were immobilised on CMS Series S chip via amine coupling chemistry on Flowcell 2, 3 and 4 (respectively) to a level of approximately 20 RU. HBS-EP buffer (10 mM HEPES pH 7.4, 0.15 M NaCl, 3 mM EDTA, 0.05% Surfactant P20, GE Healthcare) was used as the running buffer. […] The surface was regenerated by 2×10 μL injection of 10 mM HCl at a flowrate of 10 uL/min.
(§2) Background subtraction binding curves were analysed using the T200 evaluation software (version 1.0; GE Healthcare) following standard procedures. Kinetic parameters were determined using heterogeneous fitting algorithm with RI=0), as described in Example 3, and the values are provided in Table 4.

[7] = target: T2, mature human TGF-beta 2; assay: as above
Experimental: as §1, §2

[8] = target: T3, mature human TGF-beta 3; assay: as above
Experimental: as §1, §2

[9] = target: T4, mature human TGF-beta 1; assay: SPR Biacore T200, human TGF-beta amine-coupled (~20 RU), E. coli derived Fab as analyte; heterogeneous fit, component 1 (kd1; believed occluded)
Experimental: as §1, §2

[10] = target: T2, mature human TGF-beta 2; assay: as above
Experimental: as §1, §2

[11] = target: T3, mature human TGF-beta 3; assay: as above
Experimental: as §1, §2

[12] = target: T4, mature human TGF-beta 1; assay: SPR Biacore T200, human TGF-beta amine-coupled (~20 RU), E. coli derived Fab as analyte; heterogeneous fit, component 2 (KD2; believed unoccluded)
Experimental: as §1, §2

[13] = target: T2, mature human TGF-beta 2; assay: as above
Experimental: as §1, §2

[14] = target: T3, mature human TGF-beta 3; assay: as above
Experimental: as §1, §2

[15] = target: T4, mature human TGF-beta 1; assay: SPR Biacore T200, human TGF-beta amine-coupled (~20 RU), E. coli derived Fab as analyte; heterogeneous fit, component 2 (ka2; believed unoccluded)
Experimental: as §1, §2

[16] = target: T2, mature human TGF-beta 2; assay: as above
Experimental: as §1, §2

[17] = target: T3, mature human TGF-beta 3; assay: as above
Experimental: as §1, §2

T4 sequence (P01137 279-390 limits assumed): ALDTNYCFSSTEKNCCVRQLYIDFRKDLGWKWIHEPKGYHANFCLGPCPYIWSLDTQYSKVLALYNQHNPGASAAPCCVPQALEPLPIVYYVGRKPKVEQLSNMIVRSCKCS
T1 sequence (P01137 30-390 limits assumed): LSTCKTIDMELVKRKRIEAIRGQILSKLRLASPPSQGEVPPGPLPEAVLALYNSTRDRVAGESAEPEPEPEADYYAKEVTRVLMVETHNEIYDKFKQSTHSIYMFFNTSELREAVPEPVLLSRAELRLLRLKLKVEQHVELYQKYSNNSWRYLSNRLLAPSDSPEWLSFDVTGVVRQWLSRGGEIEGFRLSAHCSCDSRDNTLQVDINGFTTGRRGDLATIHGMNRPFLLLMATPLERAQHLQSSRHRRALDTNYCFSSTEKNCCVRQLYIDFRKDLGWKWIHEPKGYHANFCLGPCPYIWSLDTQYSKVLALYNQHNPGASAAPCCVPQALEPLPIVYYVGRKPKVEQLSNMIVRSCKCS

B1: humanised antibody 4856 Fab graft gL3gH13 (Fab, V domains shown)
VH: EVQLVESGGGLVKPGGSLRLSCAASGFSLSSYDMSWVRQAPGKGLEWIGIIYGGSGSTWYASWAKGRFTISRDSAKNSVYLQMNSLRAEDTAVYYCARGRDAGAGGSRNGYSLWGQGTLVTVSS
VL: AYDMTQSPSTLSASVGDRVTITCQASESIYSGLAWYQQKPGKAPKLLIYAASDLASGVPSRFSGSGSGTEYTLTISSLQPDDFATYYCQQTWTDGGIDNPFGGGTKVEIKR
notes: Human gamma-1 CH1 (G1m17) and human C-kappa (K1m3); also called 4856gL3gH13
- binding result [1]: no binding
- Geometric mean IC50, BxPC3 and HEK-Blue TGF-beta reporter gene co-culture assay [2]: 3.95 nM
- Geo Mean IC50, Collagen I &III deposition, RPTEC and HRF co-culture [3]: 32.8 nM
- Geo Mean IC50, Collagen V deposition, RPTEC and HRF co-culture [3]: 56.3 nM
- Geo Mean IC50, Fibronectin deposition, RPTEC and HRF co-culture [3]: 29.7 nM
- IC50 (N = 1), Collagen I &III deposition, RPTEC and HRF co-culture [3]: 22.4 nM
- IC50 (N = 1), Collagen V deposition, RPTEC and HRF co-culture [3]: 38.9 nM
- IC50 (N = 1), Fibronectin deposition, RPTEC and HRF co-culture [3]: 32.6 nM
- IC50 (N = 2), Collagen I &III deposition, RPTEC and HRF co-culture [3]: 48 nM
- IC50 (N = 2), Collagen V deposition, RPTEC and HRF co-culture [3]: 81.6 nM
- IC50 (N = 2), Fibronectin deposition, RPTEC and HRF co-culture [3]: 27.1 nM
- Geo Mean IC50, Collagen I &III deposition, RPTEC mono-culture + TGFB2 [4]: 0.3 nM
- Geo Mean IC50, Collagen V deposition, RPTEC mono-culture + TGFB2 [4]: 3.1 nM
- Geo Mean IC50, Fibronectin deposition, RPTEC mono-culture + TGFB2 [4]: 0.3 nM
- IC50 (N = 1), Collagen I &III deposition, RPTEC mono-culture + TGFB2 [4]: < 2 nM
- IC50 (N = 1), Collagen V deposition, RPTEC mono-culture + TGFB2 [4]: 0.52 nM
- IC50 (N = 1), Fibronectin deposition, RPTEC mono-culture + TGFB2 [4]: 0.16 nM
- IC50 (N = 2), Collagen I &III deposition, RPTEC mono-culture + TGFB2 [4]: 0.6 nM
- IC50 (N = 2), Collagen V deposition, RPTEC mono-culture + TGFB2 [4]: 10.5 nM
- IC50 (N = 2), Fibronectin deposition, RPTEC mono-culture + TGFB2 [4]: 0.76 nM
- IC50 (N = 3), Collagen I &III deposition, RPTEC mono-culture + TGFB2 [4]: 0.13 nM
- IC50 (N = 3), Collagen V deposition, RPTEC mono-culture + TGFB2 [4]: 5.29 nM
- IC50 (N = 3), Fibronectin deposition, RPTEC mono-culture + TGFB2 [4]: 0.22 nM
- Geo Mean IC50, Collagen I &III deposition, RPTEC mono-culture + TGFB3 [5]: 81.2 nM
- Geo Mean IC50, Collagen V deposition, RPTEC mono-culture + TGFB3 [5]: 191 nM
- Geo Mean IC50, Fibronectin deposition, RPTEC mono-culture + TGFB3 [5]: 82.1 nM
- IC50 (N = 1), Collagen I &III deposition, RPTEC mono-culture + TGFB3 [5]: 64.3 nM
- IC50 (N = 1), Collagen V deposition, RPTEC mono-culture + TGFB3 [5]: 141 nM
- IC50 (N = 1), Fibronectin deposition, RPTEC mono-culture + TGFB3 [5]: 51.5 nM
- IC50 (N = 2), Collagen I &III deposition, RPTEC mono-culture + TGFB3 [5]: 124 nM
- IC50 (N = 2), Collagen V deposition, RPTEC mono-culture + TGFB3 [5]: 336 nM
- IC50 (N = 2), Fibronectin deposition, RPTEC mono-culture + TGFB3 [5]: 140 nM
- IC50 (N = 3), Collagen I &III deposition, RPTEC mono-culture + TGFB3 [5]: 67.2 nM
- IC50 (N = 3), Collagen V deposition, RPTEC mono-culture + TGFB3 [5]: 147 nM
- IC50 (N = 3), Fibronectin deposition, RPTEC mono-culture + TGFB3 [5]: 76.8 nM
- kon [6]: 74900 M⁻¹ s⁻¹
- kon [7]: 57700 M⁻¹ s⁻¹
- kon [8]: 93200 M⁻¹ s⁻¹
- koff [9]: 0.000709 s⁻¹
- koff [10]: 0.000211 s⁻¹
- koff [11]: 0.00146 s⁻¹
- Kd [12]: 0.0808 nM
- Kd [13]: 0.196 nM
- Kd [14]: 1.72 nM
- kon [15]: 704000 M⁻¹ s⁻¹
- kon [16]: 904000 M⁻¹ s⁻¹
- kon [17]: 2e+06 M⁻¹ s⁻¹
